Data published in publication PMC6962038 (Science Advances, 2020).

Experiments:
[1] = target: wild-type human APJ (membrane preparation) (human, UniProt P35414); assay: cell-based or functional assay
[2] = target: APJ463 chimeric receptor reconstituted in nanodiscs (human, UniProt P35414, C325L | C326M); assay: SPR

B1: single-domain antibody (sdAb) antagonist JN241 (VHH)
VHH: QVQLVESGGGSVQSGGSLTLSCAASGSTYSSHCMGWFRQAPGKEREGVALMTRSRGTSYADSVKGRFTISQDNTKNILYLQMNSLKPEDTAMYYCAAVPRAGIESGAYCKWNMKDSGSWGQGTLVTVSS
For B1, the “IC50 of antagonism of the action of Apelin 13 on human APJ, cAMP assay” value [1] was 5.9 nM and the Kd [2] was 0.083 nM.
